Results from US20200155714A1, “DUAL-TARGET IMAGING MOLECULAR PROBE, PREPARATION METHOD THEREFOR, AND APPLICATIONS THEREOF” (PEKING UNION MEDICAL COLLEGE HOSPITAL, CHINESE ACADEMY OF …, priority 2017, published 2020).

Design: species or system mice
Details: mouse, in vivo
Description: {circumflex over (4)} Biodistribution of ^68Ga-NOTA-3PEG4-TATE-RGD in Healthy Mice
There was small amount of uptake in the heart, liver and lungs, which decreased quickly over time.

## CC(O)[C@@H]1NC(=O)[C@H](CCCCN)NC(=O)[C@@H](Cc2c[nH]c3ccccc23)NC(=O)[C@H](Cc2ccc(O)cc2)NC(=O)[C@@H](NC(=O)[C@@H](Cc2ccccc2)NC(=O)COCCOCCOCCOCCNC(=O)C(CCC(=O)NCCOCCOCCOCCOCC(=O)NCCCC[C@@H]2NC(=O)[C@@H](Cc3ccc(O)cc3)NC(=O)[C@H](CC(=O)O)NC(=O)CNC(=O)[C@H](CCCNC(=N)N)NC2=O)NC(=O)COCCOCCOCCOCCNC(=S)Nc2ccc(CC3CN(CC(=O)O)CCN(CC(=O)O)CCN3CC(=O)O)cc2)CSSC[C@@H](C(=O)N[C@H](C(=O)O)[C@@H](C)O)NC1=O (stereo partly drawn) [^68Ga-NOTA-3PEG4-TATE-RGD, metal not drawn]
  clearance from blood, heart and liver: cleared from the blood, heart and liver faster
  distribution in brain tissues / blood-brain barrier passage: could not pass through the blood-brain barrier
  route of excretion: mainly excreted through the kidneys
